Results on 62 sequences are retold here after the supplement of paper PMC9112550, “Optimization of the antimicrobial peptide Bac7 by deep mutational scanning” (BMC Biology, 2022).

This series relates to Escherichia coli TOP10. The series can be described thus: shrunken log2 fold change of peptide-encoding DNA abundance (4.5 h post-induction vs induction); higher = less antimicrobial activity (less host growth inhibition). The settings on record: time post-induction: 4.5 h; library: site-saturation at positions 5, 18, 19, 20.
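Also: peptides expressed intracellularly from a pBAD plasmid library in pooled LB shake-flask culture, induced with 0.3% L-arabinose, DNA abundance read by NGS, three biological replicates, DESeq2 with apeglm shrinkage.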

With RRIRTRPPRLPRPRPRPRKEPRP, the “shrunken log2 fold change” value was found to be 0.102.

Consider RRIRNRPPRLPRPRPRPMKSPRP, for which the “shrunken log2 fold change” value is -0.106.

Take RRIRQRPPRLPRPRPRPVTYPRP: the “shrunken log2 fold change” value is -0.219.

With RRIRPRPPRLPRPRPRPIHHPRP, the “shrunken log2 fold change” value is -0.454.

Turning to RRIRDRPPRLPRPRPRPNWFPRP, the “shrunken log2 fold change” value was -0.0729.

Regarding RRIRKRPPRLPRPRPRPMITPRP, the “shrunken log2 fold change” value was -0.278.

Turning to RRIRLRPPRLPRPRPRPADFPRP, the “shrunken log2 fold change” value was -0.0534.

As to RRIRHRPPRLPRPRPRPDWTPRP, the “shrunken log2 fold change” value was -0.0689.

For the sequence RRIRFRPPRLPRPRPRPKTQPRP, the “shrunken log2 fold change” value is 0.397.

In the case of RRIRMRPPRLPRPRPRPEGVPRP, the “shrunken log2 fold change” value worked out at 3.21.

In the case of RRIRPRPPRLPRPRPRPKFKPRP, the “shrunken log2 fold change” value was determined as 0.0351.

Consider RRIRVRPPRLPRPRPRPQSHPRP, for which the “shrunken log2 fold change” value is -0.613.

In the case of RRIRTRPPRLPRPRPRPFSAPRP, the “shrunken log2 fold change” value is 0.0716.

In the case of RRIRVRPPRLPRPRPRPGKGPRP, the “shrunken log2 fold change” value stood at 0.0187.

RRIRCRPPRLPRPRPRPSWIPRP: the “shrunken log2 fold change” value was -0.732.

On to RRIRCRPPRLPRPRPRPNFWPRP, for which the “shrunken log2 fold change” value was -0.136.

In the case of RRIRTRPPRLPRPRPRPHNYPRP, the “shrunken log2 fold change” value was -0.329.

As to RRIRKRPPRLPRPRPRPQYIPRP, the “shrunken log2 fold change” value is 0.102.

Take RRIRARPPRLPRPRPRPRCNPRP: the “shrunken log2 fold change” value came out at 0.197.

For RRIRRRPPRLPRPRPRPREKPRP, the “shrunken log2 fold change” value was 0.0627.

Regarding RRIRCRPPRLPRPRPRPAFFPRP, the “shrunken log2 fold change” value came out at 0.0268.

With RRIRWRPPRLPRPRPRPITFPRP, the “shrunken log2 fold change” value is -0.232.

For the sequence RRIRFRPPRLPRPRPRPRQDPRP, the “shrunken log2 fold change” value stood at 0.253.

RRIRWRPPRLPRPRPRPLWPPRP: the “shrunken log2 fold change” value was found to be 0.275.

As for RRIRNRPPRLPRPRPRPGMDPRP, the “shrunken log2 fold change” value was -0.0895.

As to RRIRTRPPRLPRPRPRPYNLPRP, the “shrunken log2 fold change” value was -0.336.

As for RRIRFRPPRLPRPRPRPYVNPRP, the “shrunken log2 fold change” value is -1.52.

In the case of RRIRKRPPRLPRPRPRPWRRPRP, the “shrunken log2 fold change” value came out at 0.0332.

For the sequence RRIRQRPPRLPRPRPRPDTLPRP, the “shrunken log2 fold change” value is 0.016.

In the case of RRIRRRPPRLPRPRPRPVAEPRP, the “shrunken log2 fold change” value worked out at 0.663.

For the sequence RRIRCRPPRLPRPRPRPSGCPRP, the “shrunken log2 fold change” value is -0.221.

Consider RRIRVRPPRLPRPRPRPNSFPRP, for which the “shrunken log2 fold change” value is -0.0668.

Turning to RRIRIRPPRLPRPRPRPGCKPRP, the “shrunken log2 fold change” value was -0.0374.

Regarding RRIRLRPPRLPRPRPRPIEVPRP, the “shrunken log2 fold change” value was determined as 0.434.

With RRIRTRPPRLPRPRPRPKMTPRP, the “shrunken log2 fold change” value worked out at 0.214.

RRIRDRPPRLPRPRPRPSPAPRP: the “shrunken log2 fold change” value was 0.0515.

Regarding RRIRMRPPRLPRPRPRPVQAPRP, the “shrunken log2 fold change” value was determined as 1.26.

Turning to RRIRNRPPRLPRPRPRPYMWPRP, the “shrunken log2 fold change” value is -0.328.

For RRIRSRPPRLPRPRPRPGTIPRP, the “shrunken log2 fold change” value was -0.263.

Consider RRIRHRPPRLPRPRPRPKQKPRP, for which the “shrunken log2 fold change” value was -0.00654.

On to RRIRFRPPRLPRPRPRPFKDPRP, for which the “shrunken log2 fold change” value was -0.112.

Regarding RRIRMRPPRLPRPRPRPEKMPRP, the “shrunken log2 fold change” value was 1.68.

With RRIRGRPPRLPRPRPRPWYAPRP, the “shrunken log2 fold change” value is -0.249.

Turning to RRIRERPPRLPRPRPRPTGYPRP, the “shrunken log2 fold change” value is -0.0056.

Consider RRIRMRPPRLPRPRPRPTHPPRP, for which the “shrunken log2 fold change” value worked out at 0.564.

For the sequence RRIRSRPPRLPRPRPRPDVHPRP, the “shrunken log2 fold change” value was -0.0954.

For the sequence RRIRMRPPRLPRPRPRPDFAPRP, the “shrunken log2 fold change” value is 0.0706.

Take RRIRNRPPRLPRPRPRPFLMPRP: the “shrunken log2 fold change” value is -0.0732.

Take RRIRTRPPRLPRPRPRPADWPRP: the “shrunken log2 fold change” value came to 0.446.

Regarding RRIRGRPPRLPRPRPRPQIHPRP, the “shrunken log2 fold change” value turned out to be 0.32.

On to RRIRKRPPRLPRPRPRPQVPPRP, for which the “shrunken log2 fold change” value was 0.325.

For RRIRMRPPRLPRPRPRPWVSPRP, the “shrunken log2 fold change” value was -0.0423.

For the sequence RRIRSRPPRLPRPRPRPFVVPRP, the “shrunken log2 fold change” value was -0.0648.

For the sequence RRIRWRPPRLPRPRPRPENSPRP, the “shrunken log2 fold change” value came to 0.0193.

With RRIRWRPPRLPRPRPRPNMPPRP, the “shrunken log2 fold change” value is -0.268.

Turning to RRIRQRPPRLPRPRPRPNIEPRP, the “shrunken log2 fold change” value was -0.0328.

RRIRVRPPRLPRPRPRPLIPPRP: the “shrunken log2 fold change” value was -0.406.

As to RRIRMRPPRLPRPRPRPVTAPRP, the “shrunken log2 fold change” value was determined as 0.57.

For the sequence RRIRRRPPRLPRPRPRPCLCPRP, the “shrunken log2 fold change” value is -0.00345.

On to RRIRPRPPRLPRPRPRPVYVPRP, for which the “shrunken log2 fold change” value is -0.167.

Regarding RRIRCRPPRLPRPRPRPNEWPRP, the “shrunken log2 fold change” value is 0.0357.

With RRIRVRPPRLPRPRPRPLARPRP, the “shrunken log2 fold change” value is 0.0756.
